Data published in FireProtDB (doi:10.1021/bi00128a004).
Values joined by “and” are separate entries in the source; they are usually repeats but may differ in a detail not shown here. Equal entries are not always repeated.

B1: Tissue-type plasminogen activator, P00750 (parent)
chain: MDAMKRGLCCVLLLCGAVFVSPSQEIHARFRRGARSYQVICRDEKTQMIYQQHQSWLRPVLRSNRVEYCWCNSGRAQCHSVPVKSCSEPRCFNGGTCQQALYFSDFVCQCPEGFAGKCCEIDTRATCYEDQGISYRGTWSTAESGAECTNWNSSALAQKPYSGRRPDAIRLGLGNHNYCRNPDRDSKPWCYVFKAGKYSSEFCSTPACSEGNSDCYFGNGSAYRGTHSLTESGASCLPWNSMILIGKVYTAQNPSAQALGLGKHNYCRNPDGDAKPWCHVLKNRRLTWEYCDVPSCSTCGLRQYSQPQFRIKGGLFADIASHPWQAAIFAKHRRSPGERFLCGGILISSCWILSAAHCFQERFPPHHLTVILGRTYRVVPGEEEQKFEVEKYIVHKEFDDDTYDNDIALLQLKSDSSRCAQESSVVRTVCLPPADLQLPDWTECELSGYGKHEALSPFYSERLKEAHVRLYPSSRCTSQHLLNRTVTDNMLCAGDTRSGGPQANLHDACQGDSGGPLVCLNDGRMTLVGIISWGLGCGQKDVPGVYTKVTNYLDWIRDNMRP

Variants of: B1
Conditions: Homo sapiens; pH 8; Thermal; DSC; Tris - Oac/100mM NaOAc 50 mM; structure 1PML; whole UniProt chain shown

Variant | Tm | change of melting temperature, mutant - wild type (higher = more stable)
W288Y | 81.6 °C | 
W288S | 73.7 °C and 76.5 °C | -3.5 °C
W288L | 71.7 °C and 73.9 °C | -3.7 °C
W288F |  | -1.7 °C
